Our source for the stoichiometry N values is doi:10.1101/638080.

For the assay, the target named is Chloride Intracellular Channel 1 (CLIC1), human, with N-terminal twin strep tag (human) (UniProt O00299). Description: mass photometry.

On to “Chloride Intracellular Channel 1 (CLIC1), human, with N-terminal twin strep tag (from UniProt O00299 1-241) (natural protein)”, for which the stoichiometry N was found to be 6.

For orientation: stoichiometry N means a count of units in the complex or per binding partner.
